Laboratory results from IntAct's records for PubMed 31515488.

B1: Adenylate kinase 8 (Homo sapiens), Q96MA6 (parent)
chain: MDATIAPHRIPPEMPQYGEENHIFELMQNMLEQLLIHQPEDPIPFMIQHLHRDNDNVPRIVILGPPASGKTTIAMWLCKHLNSSLLTLENLILNEFSYTATEARRLYLQRKTVPSALLVQLIQERLAEEDCIKQGWILDGIPETREQALRIQTLGITPRHVIVLSAPDTVLIERNLGKRIDPQTGEIYHTTFDWPPESEIQNRLMVPEDISELETAQKLLEYHRNIVRVIPSYPKILKVISADQPCVDVFYQALTYVQSNHRTNAPFTPRVLLLGPVGSGKSLQAALLAQKYRLVNVCCGQLLKEAVADRTTFGELIQPFFEKEMAVPDSLLMKVLSQRLDQQDCIQKGWVLHGVPRDLDQAHLLNRLGYNPNRVFFLNVPFDSIMERLTLRRIDPVTGERYHLMYKPPPTMEIQARLLQNPKDAEEQVKLKMDLFYRNSADLEQLYGSAITLNGDQDPYTVFEYIESGIINPLPKKIP
B2: PDZ and LIM domain protein 1 (Homo sapiens), O00151 (parent)
chain: MTTQQIDLQGPGPWGFRLVGGKDFEQPLAISRVTPGSKAALANLCIGDVITAIDGENTSNMTHLEAQNRIKGCTDNLTLTVARSEHKVWSPLVTEEGKRHPYKMNLASEPQEVLHIGSAHNRSAMPFTASPASSTTARVITNQYNNPAGLYSSENISNFNNALESKTAASGVEANSRPLDHAQPPSSLVIDKESEVYKMLQEKQELNEPPKQSTSFLVLQEILESEEKGDPNKPSGFRSVKAPVTKVAASIGNAQKLPMCDKCGTGIVGVFVKLRDRHRHPECYVCTDCGTNLKQKGHFFVEDQIYCEKHARERVTPPEGYEVVTVFPK
B3: Phospholipid scramblase 4 (Homo sapiens), Q9NRQ2 (parent)
chain: MSGVVPTAPEQPAGEMENQTKPPDPRPDAPPEYNSHFLPGPPGTAVPPPTGYPGGLPMGYYSPQQPSTFPLYQPVGGIHPVRYQPGKYPMPNQSVPITWMPGPTPMANCPPGLEYLVQLDNIHVLQHFEPLEMMTCFETNNRYDIKNNSDQMVYIVTEDTDDFTRNAYRTLRPFVLRVTDCMGREIMTMQRPFRCTCCCFCCPSARQELEVQCPPGVTIGFVAEHWNLCRAVYSIQNEKKENVMRVRGPCSTYGCGSDSVFEVKSLDGISNIGSIIRKWNGLLSAMADADHFDIHFPLDLDVKMKAMIFGACFLIDFMYFERSPPQRSR
partner: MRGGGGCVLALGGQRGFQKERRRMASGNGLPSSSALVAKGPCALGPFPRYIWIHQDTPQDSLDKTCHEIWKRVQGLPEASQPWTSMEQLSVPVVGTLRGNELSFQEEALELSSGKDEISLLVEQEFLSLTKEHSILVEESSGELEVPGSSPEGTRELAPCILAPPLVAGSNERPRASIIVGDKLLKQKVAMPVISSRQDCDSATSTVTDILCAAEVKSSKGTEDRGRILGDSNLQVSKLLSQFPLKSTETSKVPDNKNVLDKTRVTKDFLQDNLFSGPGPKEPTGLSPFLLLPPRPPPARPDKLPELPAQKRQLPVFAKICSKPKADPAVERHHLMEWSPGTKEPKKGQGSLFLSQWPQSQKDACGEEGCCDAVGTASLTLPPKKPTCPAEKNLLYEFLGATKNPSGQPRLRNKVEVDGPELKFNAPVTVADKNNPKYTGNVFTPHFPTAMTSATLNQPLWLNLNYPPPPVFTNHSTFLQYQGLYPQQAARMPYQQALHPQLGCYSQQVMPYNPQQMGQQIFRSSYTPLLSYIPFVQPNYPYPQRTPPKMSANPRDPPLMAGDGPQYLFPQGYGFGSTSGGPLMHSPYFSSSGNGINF
B4: Isoform Long of Autophagy protein 5 (Homo sapiens), Q9H1Y0-1 (parent)
chain: MTDDKDVLRDVWFGRIPTCFTLYQDEITEREAEPYYLLLPRVSYLTLVTDKVKKHFQKVMRQEDISEIWFEYEGTPLKWHYPIGLLFDLLASSSALPWNITVHFKSFPEKDLLHCPSKDAIEAHFMSCMKEADALKHKSQVINEMQKKDHKQLWMGLQNDRFDQFWAINRKLMEYPAEENGFRYIPFRIYQTTTERPFIQKLFRPVAADGQLHTLGDLLKEVCPSAIDPEDGEKKNQVMIHGIEPMLETPLQWLSEHLSYPDNFLHISIIPQPTD
B5: Tuftelin-interacting protein 11 (Homo sapiens), Q9UBB9 (parent)
chain: MSLSHLYRDGEGRIDDDDDERENFEITDWDLQNEFNPNRQRHWQTKEEATYGVWAERDSDDERPSFGGKRARDYSAPVNFISAGLKKGAAEEAELEDSDDEEKPVKQDDFPKDFGPRKLKTGGNFKPSQKGFAGGTKSFMDFGSWERHTKGIGQKLLQKMGYVPGRGLGKNAQGIINPIEAKQRKGKGAVGAYGSERTTQSMQDFPVVDSEEEAEEEFQKELSQWRKDPSGSKKKPKYSYKTVEELKAKGRISKKLTAPQKELSQVKVIDMTGREQKVYYSYSQISHKHNVPDDGLPLQSQQLPQSGKEAKAPGFALPELEHNLQLLIDLTEQEIIQNDRQLQYERDMVVNLFHELEKMTEVLDHEERVISNLSKVLEMVEECERRMQPDCSNPLTLDECARIFETLQDKYYEEYRMSDRVDLAVAIVYPLMKEYFKEWDPLKDCTYGTEIISKWKSLLENDQLLSHGGQDLSADAFHRLIWEVWMPFVRNIVTQWQPRNCDPMVDFLDSWVHIIPVWILDNILDQLIFPKLQKEVENWNPLTDTVPIHSWIHPWLPLMQARLEPLYSPIRSKLSSALQKWHPSDSSAKLILQPWKDVFTPGSWEAFMVKNIVPKLGMCLGELVINPHQQHMDAFYWVIDWEGMISVSSLVGLLEKHFFPKWLQVLCSWLSNSPNYEEITKWYLGWKSMFSDQVLAHPSVKDKFNEALDIMNRAVSSNVGAYMQPGARENIAYLTHTERRKDFQYEAMQERREAENMAQRGIGVAASSVPMNFKDLIETKAEEHNIVFMPVIGKRHEGKQLYTFGRIVIYIDRGVVFVQGEKTWVPTSLQSLIDMAK
partner: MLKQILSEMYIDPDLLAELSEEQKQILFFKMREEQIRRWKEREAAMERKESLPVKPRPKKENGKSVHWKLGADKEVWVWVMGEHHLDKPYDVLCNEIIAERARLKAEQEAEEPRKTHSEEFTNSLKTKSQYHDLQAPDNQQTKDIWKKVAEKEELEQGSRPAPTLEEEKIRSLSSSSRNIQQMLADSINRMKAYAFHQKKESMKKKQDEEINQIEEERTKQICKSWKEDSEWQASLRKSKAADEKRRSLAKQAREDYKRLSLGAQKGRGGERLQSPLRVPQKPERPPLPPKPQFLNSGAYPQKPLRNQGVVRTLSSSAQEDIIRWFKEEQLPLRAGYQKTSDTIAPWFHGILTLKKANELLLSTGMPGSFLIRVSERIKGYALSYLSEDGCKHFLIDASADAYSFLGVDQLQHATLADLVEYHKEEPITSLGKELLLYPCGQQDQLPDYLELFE
B6: Keratin, type II cytoskeletal 2 epidermal (Homo sapiens), P35908 (parent)
chain: MSCQISCKSRGRGGGGGGFRGFSSGSAVVSGGSRRSTSSFSCLSRHGGGGGGFGGGGFGSRSLVGLGGTKSISISVAGGGGGFGAAGGFGGRGGGFGGGSSFGGGSGFSGGGFGGGGFGGGRFGGFGGPGGVGGLGGPGGFGPGGYPGGIHEVSVNQSLLQPLNVKVDPEIQNVKAQEREQIKTLNNKFASFIDKVRFLEQQNQVLQTKWELLQQMNVGTRPINLEPIFQGYIDSLKRYLDGLTAERTSQNSELNNMQDLVEDYKKKYEDEINKRTAAENDFVTLKKDVDNAYMIKVELQSKVDLLNQEIEFLKVLYDAEISQIHQSVTDTNVILSMDNSRNLDLDSIIAEVKAQYEEIAQRSKEEAEALYHSKYEELQVTVGRHGDSLKEIKIEISELNRVIQRLQGEIAHVKKQCKNVQDAIADAEQRGEHALKDARNKLNDLEEALQQAKEDLARLLRDYQELMNVKLALDVEIATYRKLLEGEECRMSGDLSSNVTVSVTSSTISSNVASKAAFGGSGGRGSSSGGGYSSGSSSYGSGGRQSGSRGGSGGGGSISGGGYGSGGGSGGRYGSGGGSKGGSISGGGYGSGGGKHSSGGGSRGGSSSGGGYGSGGGGSSSVKGSSGEAFGSSVTFSFR
partner: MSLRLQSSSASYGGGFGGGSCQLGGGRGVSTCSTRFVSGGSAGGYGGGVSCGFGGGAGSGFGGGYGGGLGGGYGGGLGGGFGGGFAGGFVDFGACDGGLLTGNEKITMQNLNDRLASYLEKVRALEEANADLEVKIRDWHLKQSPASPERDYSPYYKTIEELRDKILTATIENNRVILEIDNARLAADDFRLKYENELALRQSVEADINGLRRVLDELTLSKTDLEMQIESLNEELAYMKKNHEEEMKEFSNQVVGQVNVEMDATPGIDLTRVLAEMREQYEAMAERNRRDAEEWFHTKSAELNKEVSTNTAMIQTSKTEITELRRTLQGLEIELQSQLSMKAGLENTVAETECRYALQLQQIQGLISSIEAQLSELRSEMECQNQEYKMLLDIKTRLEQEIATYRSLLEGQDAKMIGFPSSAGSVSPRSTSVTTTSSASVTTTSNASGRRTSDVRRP

Variants of: B1
Details: with mcm7_human MCM7, P33993
mcm7_human MCM7, P33993, sequence (P33993 whole entry): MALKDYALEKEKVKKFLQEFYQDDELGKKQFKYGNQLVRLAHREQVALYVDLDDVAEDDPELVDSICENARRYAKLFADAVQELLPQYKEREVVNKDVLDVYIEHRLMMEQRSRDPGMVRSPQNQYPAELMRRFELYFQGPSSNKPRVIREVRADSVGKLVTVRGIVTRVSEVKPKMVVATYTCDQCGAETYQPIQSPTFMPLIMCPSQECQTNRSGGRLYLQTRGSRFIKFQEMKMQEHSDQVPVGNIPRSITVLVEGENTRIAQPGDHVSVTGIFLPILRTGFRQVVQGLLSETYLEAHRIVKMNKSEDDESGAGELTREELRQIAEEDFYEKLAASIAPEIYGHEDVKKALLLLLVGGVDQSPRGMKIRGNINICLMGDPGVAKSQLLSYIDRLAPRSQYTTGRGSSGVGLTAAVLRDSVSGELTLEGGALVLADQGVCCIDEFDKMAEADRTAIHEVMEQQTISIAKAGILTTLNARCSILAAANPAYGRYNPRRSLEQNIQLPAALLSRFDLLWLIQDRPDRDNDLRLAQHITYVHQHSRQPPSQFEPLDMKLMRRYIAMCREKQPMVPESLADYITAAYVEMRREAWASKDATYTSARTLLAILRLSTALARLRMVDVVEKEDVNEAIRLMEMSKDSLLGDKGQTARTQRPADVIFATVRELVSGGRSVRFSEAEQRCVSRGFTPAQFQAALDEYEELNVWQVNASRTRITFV

Row | effect of a mutation on the interaction | Variant
1 | with no effect | V227I
2 | disrupting interaction strength | R339C
3 | with no effect | T169K

Variants of: B2
Details: with gfap_human GFAP

Row | effect of a mutation on the interaction | Variant
4 | with no effect | N175S

Variants of: B3
Details: with ca094_human C1orf94, Q6P1W5

Row | effect of a mutation on the interaction | Variant
5 | with no effect | I155V
6 | with no effect | A107S
7 | with no effect | N34S

Variants of: B4
Details: with tera_human VCP

Row | effect of a mutation on the interaction | Variant
8 | disrupting interaction strength | K58M

Variants of: B4
Details: with keap1_human KEAP1, Q14145
keap1_human KEAP1, Q14145, sequence (Q14145 whole entry): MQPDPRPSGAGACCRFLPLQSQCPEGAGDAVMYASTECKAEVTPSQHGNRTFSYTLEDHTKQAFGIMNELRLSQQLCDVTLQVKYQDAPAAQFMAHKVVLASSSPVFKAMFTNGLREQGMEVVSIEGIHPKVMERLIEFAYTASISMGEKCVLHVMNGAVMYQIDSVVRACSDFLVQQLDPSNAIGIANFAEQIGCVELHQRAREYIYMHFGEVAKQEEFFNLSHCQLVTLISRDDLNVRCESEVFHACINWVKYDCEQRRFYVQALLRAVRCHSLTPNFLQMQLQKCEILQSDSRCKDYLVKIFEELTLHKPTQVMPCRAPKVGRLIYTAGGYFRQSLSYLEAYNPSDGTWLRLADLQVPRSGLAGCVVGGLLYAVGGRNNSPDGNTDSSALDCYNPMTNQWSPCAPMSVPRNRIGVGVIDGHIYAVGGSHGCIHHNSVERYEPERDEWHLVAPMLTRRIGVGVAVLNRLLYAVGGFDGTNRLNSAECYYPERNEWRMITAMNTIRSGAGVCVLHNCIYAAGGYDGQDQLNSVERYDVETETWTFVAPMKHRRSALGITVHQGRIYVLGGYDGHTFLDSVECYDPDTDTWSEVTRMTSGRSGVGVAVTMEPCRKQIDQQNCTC

Row | effect of a mutation on the interaction | Variant
9 | with no effect | K58M

Variants of: B5
Details: with sh24a_human SH2D4A

Row | effect of a mutation on the interaction | Variant
10 | with no effect | R8Q
11 | with no effect | S688L

Variants of: B6
Details: with KRT13, P13646

Row | effect of a mutation on the interaction | Variant
12 | with no effect | A517G
